These are literature values, as cited in article PMC3076733.

One may read the Kd as the free concentration of one partner at which half of the binding sites on the other are occupied at equilibrium, for simple one-to-one binding.

This series addresses Obscurin Rho-GEF (Homo sapiens) (UniProt Q5VST9).
UniProt Q5VST9, sequence (Q5VST9 5700-5884): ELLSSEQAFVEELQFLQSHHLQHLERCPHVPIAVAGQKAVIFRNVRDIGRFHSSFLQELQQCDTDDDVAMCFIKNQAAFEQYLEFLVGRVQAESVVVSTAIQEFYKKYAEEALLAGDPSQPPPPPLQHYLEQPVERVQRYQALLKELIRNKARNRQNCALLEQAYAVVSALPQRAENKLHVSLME

For RanBP9 (from UniProt Q96S59), the Kd was 2000 nM.
